Source: patent US20260217833A1 (APTEVO RESEARCH AND DEVELOPMENT, published 2026)

B1: CD4001184 (Fc fusion)
scFv: DIQMTQSPSSVSASVGDRVTITCRSSQSLLFSVNQKNYLAWYQQKPGKAPKLLIYWASTRESGVPDRFSGSGSGTDFTLTISSLQPEDFATYYCQHYYSYPWTFGQGTKVEIKGGGGSGGGGSGGGGSGGGGSQVQLVQSGAEVKKPGSSVKVSCKASGYTFSTSWIEWIRQAPGQGLEWIGSILPGSGSTNYNEKFKGKATFTADTSTSTAYMELSSLRSEDTAVYYCARGDDGSYVRWYFDHWGQGTLVTVSS
notes: humanized 1D5 variant; not shown: wild-type human IgG1 Fc and the Fc-to-scFv linker
B2: CD4001181 (Fc fusion)
scFv: DIQMTQSPSSVSASVGDRVTITCRASQSLLFSVNQKNYLAWYQQKPGKAPKLLIYWASTRESGVPDRFSGSGSGTDFTLTISSLQPEDFATYYCQHYYSYPWTFGQGTKVEIKGGGGSGGGGSGGGGSGGGGSQVQLVQSGAEVKKPGSSVKVSCKATGYTFSTSWIEWIRQAPGQGLEWIGSILPGSGSTNYNEKFKGKATFTADTSTSTAYMELSSLRSEDTAVYYCARGDDGSYVRWYFDHWGQGTLVTVSS
notes: as for B1
B3: CD4001182 (Fc fusion)
scFv: DIQMTQSPSSVSASVGDRVTITCRSSQSLLFSVNQKNYLAWYQQKPGKAPKLLIYWASSRQSGVPDRFSGSGSGTDFTLTISSLQPEDFATYYCQHYYSYPWTFGQGTKVEIKGGGGSGGGGSGGGGSGGGGSQVQLVQSGAEVKKPGSSVKVSCKATGYTFSTSWIEWIRQAPGQGLEWIGSILPGSGSTNYNEKFKGKATFTADTSTSTAYMELSSLRSEDTAVYYCARGDDGSYVRWYFDHWGQGTLVTVSS
notes: as for B1
B4: CD4001183 (Fc fusion)
scFv: DIQMTQSPSSVSASVGDRVTITCRSSQSLLFSVNQKNYLAWYQQKPGKAPKLLIYWASTLESGVPSRFSGSGSGTDFTLTISSLQPEDFATYYCQHYYSYPWTFGQGTKVEIKGGGGSGGGGSGGGGSGGGGSQVQLVQSGAEVKKPGSSVKVSCKATGYTFSTSWIEWIRQAPGQGLEWIGSILPGSGSTNYNEKFKGKATFTADTSTSTAYMELSSLRSEDTAVYYCARGDDGSYVRWYFDHWGQGTLVTVSS
notes: as for B1
B5: CD4001185 (Fc fusion)
scFv: DIQMTQSPSSVSASVGDRVTITCRSSQSLLFSVNQKNYLAWYQQKPGKAPKLLIYWASTRESGVPDRFSGSGSGTDFTLTISSLQPEDFATYYCQHYYSYPWTFGQGTKVEIKGGGGSGGGGSGGGGSGGGGSQVQLVQSGAEVKKPGSSVKVSCKASGYTFSTSWISWVRQAPGQGLEWIGGILPGSGSTNYNEKFKGKATFTADTSTSTAYMELSSLRSEDTAVYYCARGDDGSYVRWYFDHWGQGTLVTVSS
notes: as for B1
B6: CD4001186 (Fc fusion)
scFv: DIQMTQSPSSVSASVGDRVTITCRSSQSLLFSVNQKNYLAWYQQKPGKAPKLLIYWASTRESGVPDRFSGSGSGTDFTLTISSLQPEDFATYYCQHYYSYPWTFGQGTKVEIKGGGGSGGGGSGGGGSGGGGSQVQLVQSGAEVKKPGSSVKVSCKASGYTFSTSWIEWIRQAPGQGLEWMGSILPGSGSTNYNEKFKGKVTITADTSTSTAYMELSSLRSEDTAVYYCARGDDGSYVRWYFDHWGQGTLVTVSS
notes: as for B1
B7: CD4001187 (Fc fusion)
scFv: DIQMTQSPSSVSASVGDRVTITCRSSQSLLFSVNQKNYLAWYQQKPGKAPKLLIYWASTRESGVPDRFSGSGSGTDFTLTISSLQPEDFATYYCQHYYSYPWTFGQGTKVEIKGGGGSGGGGSGGGGSGGGGSQVQLVQSGAEVKKPGSSVKVSCKASGYTFSTSWIEWIRQAPGQGLEWIGSILPGSGSTNYAEKFKGKATFTADTSTSTAYMELSSLRSEDTAVYYCARGDDGSYVRWYFDHWGQGTLVTVSS
notes: humanized 1D5 variant; not shown: wild-type human IgG1 Fc and the Fc-scFv linker
B8: CD4001190 (Fc fusion)
scFv: DIQMTQSPSSVSASVGDRVTITCRASQSLLFSVNQKNYLAWYQQKPGKAPKLLIYWASSRQSGVPDRFSGSGSGTDFTLTISSLQPEDFATYYCQHYYSYPWTFGQGTKVEIKGGGGSGGGGSGGGGSGGGGSQVQLVQSGAEVKKPGSSVKVSCKATGYTFSTSWIEWIRQAPGQGLEWIGSILPGSGSTNYNEKFKGKATFTADTSTSTAYMELSSLRSEDTAVYYCARGDDGSYVRWYFDHWGQGTLVTVSS
notes: as for B7
B9: CD4001191 (Fc fusion)
scFv: DIQMTQSPSSVSASVGDRVTITCRSSQSLLFSVNQKNYLAWYQQKPGKAPKLLIYWASSLQSGVPSRFSGSGSGTDFTLTISSLQPEDFATYYCQHYYSYPWTFGQGTKVEIKGGGGSGGGGSGGGGSGGGGSQVQLVQSGAEVKKPGSSVKVSCKATGYTFSTSWIEWIRQAPGQGLEWIGSILPGSGSTNYNEKFKGKATFTADTSTSTAYMELSSLRSEDTAVYYCARGDDGSYVRWYFDHWGQGTLVTVSS
notes: as for B7
B10: CD4001192 (Fc fusion)
scFv: DIQMTQSPSSVSASVGDRVTITCRASQSLLFSVNQKNYLAWYQQKPGKAPKLLIYWASTLESGVPSRFSGSGSGTDFTLTISSLQPEDFATYYCQHYYSYPWTFGQGTKVEIKGGGGSGGGGSGGGGSGGGGSQVQLVQSGAEVKKPGSSVKVSCKATGYTFSTSWIEWIRQAPGQGLEWIGSILPGSGSTNYNEKFKGKATFTADTSTSTAYMELSSLRSEDTAVYYCARGDDGSYVRWYFDHWGQGTLVTVSS
notes: as for B7
B11: CD4001193 (Fc fusion)
scFv: DIQMTQSPSSVSASVGDRVTITCRASQSLLFSVNQKNYLAWYQQKPGKAPKLLIYWASSLQSGVPSRFSGSGSGTDFTLTISSLQPEDFATYYCQHYYSYPWTFGQGTKVEIKGGGGSGGGGSGGGGSGGGGSQVQLVQSGAEVKKPGSSVKVSCKATGYTFSTSWIEWIRQAPGQGLEWIGSILPGSGSTNYNEKFKGKATFTADTSTSTAYMELSSLRSEDTAVYYCARGDDGSYVRWYFDHWGQGTLVTVSS
notes: as for B7
B12: CD4001194 (Fc fusion)
scFv: DIQMTQSPSSVSASVGDRVTITCRSSQSLLFSVNQKNYLAWYQQKPGKAPKLLIYWASTRESGVPDRFSGSGSGTDFTLTISSLQPEDFATYYCQHYYSYPWTFGQGTKVEIKGGGGSGGGGSGGGGSGGGGSQVQLVQSGAEVKKPGSSVKVSCKASGYTFSTSWISWVRQAPGQGLEWMGGILPGSGSTNYNEKFKGKVTITADTSTSTAYMELSSLRSEDTAVYYCARGDDGSYVRWYFDHWGQGTLVTVSS
notes: as for B7
B13: CD4001195 (Fc fusion)
scFv: DIQMTQSPSSVSASVGDRVTITCRSSQSLLFSVNQKNYLAWYQQKPGKAPKLLIYWASTRESGVPDRFSGSGSGTDFTLTISSLQPEDFATYYCQHYYSYPWTFGQGTKVEIKGGGGSGGGGSGGGGSGGGGSQVQLVQSGAEVKKPGSSVKVSCKASGYTFSTSWISWVRQAPGQGLEWIGGILPGSGSTNYAEKFKGKATFTADTSTSTAYMELSSLRSEDTAVYYCARGDDGSYVRWYFDHWGQGTLVTVSS
notes: as for B7
B14: CD4001196 (Fc fusion)
scFv: DIQMTQSPSSVSASVGDRVTITCRSSQSLLFSVNQKNYLAWYQQKPGKAPKLLIYWASTRESGVPDRFSGSGSGTDFTLTISSLQPEDFATYYCQHYYSYPWTFGQGTKVEIKGGGGSGGGGSGGGGSGGGGSQVQLVQSGAEVKKPGSSVKVSCKASGYTFSTSWISWVRQAPGQGLEWIGGILPGSGSTNYNQKFQGRATFTADTSTSTAYMELSSLRSEDTAVYYCARGDDGSYVRWYFDHWGQGTLVTVSS
notes: as for B7
B15: CD4001197 (Fc fusion)
scFv: DIQMTQSPSSVSASVGDRVTITCRSSQSLLFSVNQKNYLAWYQQKPGKAPKLLIYWASTRESGVPDRFSGSGSGTDFTLTISSLQPEDFATYYCQHYYSYPWTFGQGTKVEIKGGGGSGGGGSGGGGSGGGGSQVQLVQSGAEVKKPGSSVKVSCKASGYTFSTSWISWVRQAPGQGLEWIGGILPGSGSTNYNEKFKGKATFTADESTSTAYMELSSLRSEDTAVYYCARGDDGSYVRWYFDHWGQGTLVTVSS
notes: humanized 1D5 variant; not shown: wildtype human IgG1 Fc and its linker to the scFv
B16: CD4001199 (Fc fusion)
scFv: DIQMTQSPSSVSASVGDRVTITCRSSQSLLFSVNQKNYLAWYQQKPGKAPKLLIYWASTRESGVPDRFSGSGSGTDFTLTISSLQPEDFATYYCQHYYSYPWTFGQGTKVEIKGGGGSGGGGSGGGGSGGGGSQVQLVQSGAEVKKPGSSVKVSCKASGYTFSTSWIEWIRQAPGQGLEWMGSILPGSGSTNYNQKFQGRVTITADTSTSTAYMELSSLRSEDTAVYYCARGDDGSYVRWYFDHWGQGTLVTVSS
notes: as for B15
B17: CD4001201 (Fc fusion)
scFv: DIQMTQSPSSVSASVGDRVTITCRSSQSLLFSVNQKNYLAWYQQKPGKAPKLLIYWASTRESGVPDRFSGSGSGTDFTLTISSLQPEDFATYYCQHYYSYPWTFGQGTKVEIKGGGGSGGGGSGGGGSGGGGSQVQLVQSGAEVKKPGSSVKVSCKASGYTFSTSWIEWIRQAPGQGLEWIGSILPGSGSTNYAEKFKGKATFTADESTSTAYMELSSLRSEDTAVYYCARGDDGSYVRWYFDHWGQGTLVTVSS
notes: as for B15
B18: CD4001203 (Fc fusion)
scFv: DIQMTQSPSSVSASVGDRVTITCRSSQSLLFSVNQKNYLAWYQQKPGKAPKLLIYWASTRESGVPDRFSGSGSGTDFTLTISSLQPEDFATYYCQHYYSYPWTFGQGTKVEIKGGGGSGGGGSGGGGSGGGGSQVQLVQSGAEVKKPGSSVKVSCKASGYTFSTSWISWVRQAPGQGLEWMGGILPGSGSTNYAEKFKGKVTITADTSTSTAYMELSSLRSEDTAVYYCARGDDGSYVRWYFDHWGQGTLVTVSS
notes: as for B15
B19: CD4001204 (Fc fusion)
scFv: DIQMTQSPSSVSASVGDRVTITCRSSQSLLFSVNQKNYLAWYQQKPGKAPKLLIYWASTRESGVPDRFSGSGSGTDFTLTISSLQPEDFATYYCQHYYSYPWTFGQGTKVEIKGGGGSGGGGSGGGGSGGGGSQVQLVQSGAEVKKPGSSVKVSCKASGYTFSTSWISWVRQAPGQGLEWMGGILPGSGSTNYNQKFQGRVTITADTSTSTAYMELSSLRSEDTAVYYCARGDDGSYVRWYFDHWGQGTLVTVSS
notes: as for B15

Biological target: T1, human CD40 full-length (human, UniProt P25942 21-277)
T1 construct: Also used for CD40 of Daudi cells, of CD40-expressing HEK293 cells and of the BPS CD40/NFkB HEK293 reporter cells where the row says so; also called CD4001012; CHOK1SV/CD40
T1 sequence (P25942 21-277): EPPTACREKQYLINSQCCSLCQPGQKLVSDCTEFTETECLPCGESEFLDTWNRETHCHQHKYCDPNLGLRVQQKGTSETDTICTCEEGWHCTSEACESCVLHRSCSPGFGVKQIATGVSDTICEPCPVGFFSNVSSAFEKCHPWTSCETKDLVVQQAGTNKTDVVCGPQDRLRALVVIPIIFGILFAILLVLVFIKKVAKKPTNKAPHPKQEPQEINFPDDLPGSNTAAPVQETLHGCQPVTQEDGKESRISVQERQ
Assay: flow cytometry, CHOK1SV/human CD40 cells

| binding result | Binder |
| --- | --- |
| binds | B1 |
| binds | B2 |
| binds | B3 |
| binds | B4 |
| binds | B5 |
| binds | B6 |
| binds | B7 |
| binds | B8 |
| binds | B9 |
| binds | B10 |
| no binding (tested: 300 nM) | B11 |
| binds | B12 |
| binds | B13 |
| binds | B14 |
| binds | B15 |
| binds | B16 |
| binds | B17 |
| binds | B18 |
| binds | B19 |
